For one assay, the target named is Bcl-xL (Homo sapiens) (UniProt Q07817). Kind of assay: ITC. Particulars: cited from earlier work.
The target of a further assay is Mcl-1 (Homo sapiens) (UniProt Q07820). The settings on record: cited from earlier work.
Assay [1] deals with human Mcl-1 ΔPESTΔTM (human). The experiment in a line: NMR competition (15N SOFAST-HMQC); 15N-Mcl-1 with an excess (5 eq. total) of an equimolar mix of TCTPBH3, TCTPBH3D16I and MuleBH3, 2 h at room temperature; populations from intensities of seven reporter residues; 950 MHz, 298 K, 50 mM MES pH 6.5, 50 mM EPPS, 50 mM NaCl, 2 mM TCEP.
Assay [2] concerns the target human Mcl-1 ΔPESTΔTM (human). The experiment in a line: NMR titration; 15N SOFAST-HMQC of 15N-Mcl-1 (100 μM) with unlabeled BH3 peptide added (TCTPBH3 0-500 μM, up to 5 eq.; TCTPBH3D16I and MuleBH3 up to 3 eq.); 950 MHz, 308 K, 50 mM MES pH 6.5, 50 mM EPPS, 50 mM NaCl, 2 mM TCEP; KD and koff from TITAN 2D line shape analysis, two-state model.
In assay [3] the target is human Mcl-1 ΔPESTΔTM (human). Kind of assay: SEC + other: SAXS; equimolar mix of TCTP and Mcl-1 (500 μM each), 2 h incubation, Superdex 200 10/300 in line with SAXS; 50 mM CHES pH 9, 50 mM NaCl, 2 mM TCEP; 37 °C (308 K in the legend).

Chain of UniProt Q07817 (Q07817 whole entry): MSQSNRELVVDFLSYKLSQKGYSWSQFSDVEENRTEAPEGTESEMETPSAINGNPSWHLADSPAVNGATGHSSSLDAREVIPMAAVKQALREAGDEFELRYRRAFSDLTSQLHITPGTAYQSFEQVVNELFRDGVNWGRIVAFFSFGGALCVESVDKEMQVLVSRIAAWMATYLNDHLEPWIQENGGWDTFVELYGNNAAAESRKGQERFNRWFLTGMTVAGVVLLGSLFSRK
Chain of UniProt Q07820 (Q07820 whole entry): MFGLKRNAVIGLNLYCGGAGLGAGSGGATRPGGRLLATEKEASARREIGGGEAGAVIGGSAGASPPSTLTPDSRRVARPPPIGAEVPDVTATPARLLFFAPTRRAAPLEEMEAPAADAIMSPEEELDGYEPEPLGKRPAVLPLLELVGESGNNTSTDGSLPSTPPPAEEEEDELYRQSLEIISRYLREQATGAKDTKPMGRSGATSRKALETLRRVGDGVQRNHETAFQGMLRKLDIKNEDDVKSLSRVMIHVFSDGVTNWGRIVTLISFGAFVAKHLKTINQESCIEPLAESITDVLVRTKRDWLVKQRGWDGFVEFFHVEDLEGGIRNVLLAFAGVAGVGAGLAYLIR

For TCTP BH3 (from UniProt P13693), in the assay with Bcl-xL (Homo sapiens), the Kd was 12 µM.
Take Mule BH3 (from UniProt Q7Z6Z7): the Kd with Mcl-1 (Homo sapiens) is 29 nM.
In assay [1], DEMFSIIYKIREIADGLCLEVE [TCTP BH3-like peptide D16I mutant (TCTPBH3D16I)] showed a relative population of Mcl-1 bound (in the mix of three peptides) of 45%.
In assay [2], DEMFSDIYKIREIADGLCLEVE [TCTP BH3-like peptide (TCTPBH3)] returned a Kd of 7.9 µM and a koff of 56 s⁻¹. Also, the fold weaker affinity than TCTPBH3D16I and MuleBH3 in assay [1] came to 10 fold.

B1: full-length human TCTP (FL-TCTP) (natural protein)
chain: MIIYRDLISHDEMFSDIYKIREIADGLCLEVEGKMVSRTEGNIDDSLIGGNASAEGPEGEGTESTVITGVDIVMNHHLQETSFTKEAYKKYIKDYMKSIKGKLEEQRPERVKPFMTGAAEQIKHILANFKNYQFFIGENMNPDGMVALLDYREDGVTPYMIFFKDGLEMEKC
Consider B1, for which the stoichiometry N in assay [3] was 1.
